Consider five molecules from US20250250357A1 (NANJING ZAIMING PHARMACEUTICAL, published 2025).

Positions count from the first letter of the chain named.

B1: S009-F2.58.8 (antibody, human IgG1, kappa, V domains shown)
VH: QVQLLQSGAELAKPGASVKLSCKASGYTFTSYWVHWVKQRPGQGLEWIGYINPNSGYTKYNQKFKDKATLTADKSSSTAYMQLSSLTYEDSAVYYCADHYYGSSRDYFDYWGQGTTLTVSS
VL: QIVLTQSPAIMSASPGEKVTMTCSASSSVSYMYWYQQRPGSSPRLLIYDTSNLASGVPVRFSGSGSGTSYSLTISRMEAEDAATYYCQQWNSYPYTFGGGTKLEIKR
notes: Human-murine chimeric antibody: murine VH/VL on human IgG1 heavy and kappa light constant regions
B2: S009-F2-56.12 (antibody, human IgG1, kappa, V domains shown)
VH: DVQLQESGPGMVKPSQSLSLTCTVTGYSITSGYDWHWIRHFPGNKLEWMGYISYSGSTNYNPSLKSRISITHDTSKNHFFLKLKSVTTEDTATYYCARGTGPDYWGQGTTLTVSS
VL: DIVMTQSQKFMSTSVGDRVSITCKASQNVRTAVAWYQQKPGQSPKALIHLPSNRHTGVPDRFTGSGSGTDFTLTISNVQSEDLADYFCLQHWNYPLTFGGGTKLEIKR
notes: as for B1
B3: S009-F2.39.3 (antibody, human IgG1, kappa, V domains shown)
VH: QVQLQQPGTELVKPGASVKLSCKASGYTFTNYWMHWVKQRPGQGLEWIGNINPSSGDSYYNERFMSKAKMTVDKSSSTAYMQLSSLTSEDSAVYYCARSGGLWLAFWGPGTLVTVSA
VL: DIVMTQSPSSLAMSVGQKVTMSCKSSQTLLNSVSQNNYLAWYQQKPGQSPTLLVYFASTRESGVPDRFIGGGSGTDFTLTISSVQAEDLADYFCQQHYRTPYTFGGGTNLEIKR
notes: as for B1
B4: S009-F2.38.12 (antibody, human IgG1, kappa, V domains shown)
VH: QVQLQQPGTELVKPGASVKLSCKASGYTFTSYWMHWVKQRPGQGLEWIGNINPSNGGTNYNEKIKNKATLTVDKSSSTAYMQLSSLTSEDSAVYYCARWNYYGNYPFDYWGQGTTLTVSS
VL: DIVMTQSQKFMSTTVGDRVSITCKASQNVGTAVAWYQQKPGQSPKLLIYSASNRYTGVPDRFTGSGSGTDFTLTISNMQSEDLADYFCQQYSSYPLTFGAGTKLELKR
notes: as for B1
B5: S009-F2.47.1 (antibody, human IgG1, kappa, V domains shown)
VH: QVQLQQPGAELVKPGASVKLSCKASGYTFTSYWMHWVKQRPGQGLEWIGMIHPNSGSTNYNEKFKSKATLTVDKSSSTAYMQLSSLTSEDSAVYYCARPVVPYWYFDVWGTGTTVTVSS
VL: B4 VL with Y91S
notes: as for B1

T3 sequence (Q13421 other isoform, or with tags, fused parts or gaps): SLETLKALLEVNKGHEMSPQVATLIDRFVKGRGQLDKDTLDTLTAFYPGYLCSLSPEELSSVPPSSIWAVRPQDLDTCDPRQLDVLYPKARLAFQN

One test deals with T1, human MSLN-R3-3 polypeptide (human).
T1 construct: also called human MSLN-R3-3 protein; hMSLN-R3-3
The experiment in a line: ELISA on coated antigen, antibody 0.0001 nM. (In general: ELISA stands for enzyme-linked immunosorbent assay.)
Protocol: (§1) The plate was sealed with a plastic film and incubated at 4° C. overnight. The next day, the plate was washed twice with PBST, and a blocking buffer [PBS+2% (w/w) BSA] was added for blocking at room temperature for 2 h. The blocking buffer was discarded, and a chimeric antibody or negative control antibody serially diluted from 100 nM was added at 50 μL/well. After incubation at 37° C. for 2 h, the plate was washed 3 times with PBST. […] After incubation at 37° C. for 2 h, the plate was washed 5 times with PBST. A TMB substrate was added at 50 μL/well for incubation at room temperature for 5-10 min, and then a stop solution (1.0 N HCl) was added at 50 μL/well.
For B1, the OD450 was determined as 0.05 OD450.

Molecule B2 yielded an OD450 of 0.06 OD450.

In turn, B3 registered an OD450 of 0.05 OD450.

B4 had an OD450 of 0.05 OD450.

B5 returned an OD450 of 0.05 OD450.

For another test, the target named is T2, human MSLN-R3-his protein (human, UniProt Q13421 487-598).
T2 construct: Self-made in HEK293E cells; also called human MSLN-R3 protein; hMSLN-R3-his; not shown: His tag
T2 sequence (Q13421 495-606): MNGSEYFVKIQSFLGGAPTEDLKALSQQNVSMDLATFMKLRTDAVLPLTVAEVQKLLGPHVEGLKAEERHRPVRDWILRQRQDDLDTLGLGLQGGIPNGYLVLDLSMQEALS
The test is described as follows: ELISA on coated antigen, antibody 100 nM.
B1: the OD450 is 0.07 OD450.

Take B2: the OD450 came out at 0.13 OD450.

In turn, B3 came in with an OD450 of 1.84 OD450.

The molecule B4 yielded an OD450 of 0.06 OD450.

B5 came in with an OD450 of 0.06 OD450.

The target in the next test is T1, human MSLN-R3-3 polypeptide. The experiment in a line: ELISA on coated antigen, antibody 10 nM.
Protocol: as §1
B1 yielded an OD450 of 0.06 OD450.

Molecule B2 had an OD450 of 0.07 OD450.

In turn, B3 had an OD450 of 0.05 OD450.

B4 showed an OD450 of 0.05 OD450.

Take B5: the OD450 is 0.06 OD450.

The next test has as its target T2, human MSLN-R3-his protein. The test is described as follows: ELISA on coated antigen, no antibody (column none).
Protocol: as §1
Take B1: the OD450 was found to be 0.05 OD450.

As to B2, the OD450 turned out to be 0.06 OD450.

B3 showed an OD450 of 0.05 OD450.

Take B4: the OD450 stood at 0.05 OD450.

B5 displayed an OD450 of 0.05 OD450.

For the next test, the target named is T1, human MSLN-R3-3 polypeptide. The experiment in a line: ELISA on coated antigen, antibody 100 nM.
Protocol: as §1
The molecule B1 showed an OD450 of 0.07 OD450.

In the case of B2, the OD450 was found to be 0.14 OD450.

On to B3, for which the OD450 came out at 0.05 OD450.

Molecule B4 displayed an OD450 of 0.06 OD450.

Take B5: the OD450 was 0.06 OD450.

For a further test the target is unchanged. The test is described as follows: ELISA on coated antigen, antibody 0.001 nM.
Protocol: as §1
With B1, the OD450 was found to be 0.06 OD450.

In turn, B2 showed an OD450 of 0.06 OD450.

Regarding B3, the OD450 is 0.05 OD450.

The molecule B4 showed an OD450 of 0.05 OD450.

As for B5, the OD450 amounted to 0.06 OD450.

The next test addresses T3, human MSLN-R2-his protein (human, UniProt Q13421 391-486).
T3 construct: Self-made in HEK293E cells; also called human MSLN-R2 protein; hMSLN-R2-his; not shown: His tag
The experiment in a line: ELISA on coated antigen, no antibody (column none).
With B1, the OD450 stood at 0.06 OD450.

Molecule B2 had an OD450 of 0.07 OD450.

B3 came in with an OD450 of 0.06 OD450.

For the molecule B4, the OD450 amounted to 0.06 OD450.

B5 came in with an OD450 of 0.06 OD450.

Another test has as its target T3, human MSLN-R2-his protein. The experiment in a line: ELISA on coated antigen, antibody 10 nM.
Protocol: as §1
As to B1, the OD450 was 2.43 OD450.

Molecule B2 had an OD450 of 0.07 OD450.

For B3, the OD450 turned out to be 0.05 OD450.

Turning to B4, the OD450 was found to be 0.05 OD450.

Take B5: the OD450 came out at 0.05 OD450.

A further test concerns the target T1, human MSLN-R3-3 polypeptide. The test is described as follows: ELISA on coated antigen, antibody 0.01 nM.
Protocol: as §1
The molecule B1 gave an OD450 of 0.06 OD450.

In the case of B2, the OD450 worked out at 0.05 OD450.

For the molecule B3, the OD450 came to 0.05 OD450.

B4 displayed an OD450 of 0.05 OD450.

B5 came in with an OD450 of 0.05 OD450.

A further test deals with T2, human MSLN-R3-his protein. The test is described as follows: ELISA on coated antigen, antibody 1 nM.
Protocol: as §1
Turning to B1, the OD450 is 0.05 OD450.

Consider B2, for which the OD450 amounted to 0.06 OD450.

In turn, B3 displayed an OD450 of 0.25 OD450.

As for B4, the OD450 worked out at 0.05 OD450.

For the molecule B5, the OD450 worked out at 0.05 OD450.

A further test concerns the target T1, human MSLN-R3-3 polypeptide. The experiment in a line: ELISA on coated antigen, antibody 0.1 nM.
Protocol: as §1
As for B1, the OD450 was found to be 0.06 OD450.

The molecule B2 gave an OD450 of 0.06 OD450.

As for B3, the OD450 was determined as 0.05 OD450.

In the case of B4, the OD450 was 0.05 OD450.

Take B5: the OD450 is 0.06 OD450.

A further test concerns the target T2, human MSLN-R3-his protein. The experiment in a line: ELISA on coated antigen, antibody 0.0001 nM.
Protocol: as §1
In turn, B1 displayed an OD450 of 0.05 OD450.

The molecule B2 gave an OD450 of 0.05 OD450.

With B3, the OD450 was 0.05 OD450.

On to B4, for which the OD450 is 0.05 OD450.

B5 displayed an OD450 of 0.05 OD450.

Another test concerns the target T3, human MSLN-R2-his protein. The experiment in a line: ELISA on coated antigen, antibody 0.0001 nM.
Protocol: as §1
The molecule B1 gave an OD450 of 0.05 OD450.

For B2, the OD450 was 0.06 OD450.

The molecule B3 registered an OD450 of 0.05 OD450.

Regarding B4, the OD450 amounted to 0.05 OD450.

For B5, the OD450 amounted to 0.05 OD450.

The next test addresses T1, human MSLN-R3-3 polypeptide. The test is described as follows: ELISA on coated antigen, no antibody (column none).
Protocol: as §1
On to B1, for which the OD450 was 0.06 OD450.

Molecule B2 came in with an OD450 of 0.07 OD450.

In turn, B3 yielded an OD450 of 0.05 OD450.

Consider B4, for which the OD450 worked out at 0.05 OD450.

Consider B5, for which the OD450 came out at 0.06 OD450.

For a further test, the target named is T3, human MSLN-R2-his protein. The experiment in a line: ELISA on coated antigen, antibody 100 nM.
Protocol: as §1
Molecule B1 displayed an OD450 of 2.63 OD450.

B2 registered an OD450 of 0.17 OD450.

For the molecule B3, the OD450 was 0.06 OD450.

On to B4, for which the OD450 was 0.06 OD450.

For B5, the OD450 was found to be 0.06 OD450.

For a further test, the target named is T3, human MSLN-R2-his protein. The test is described as follows: ELISA on coated antigen, antibody 0.01 nM.
Protocol: as §1
B1 yielded an OD450 of 0.12 OD450.

Turning to B2, the OD450 is 0.06 OD450.

B3: the OD450 came out at 0.05 OD450.

Regarding B4, the OD450 came to 0.05 OD450.

On to B5, for which the OD450 was 0.05 OD450.

A further test has as its target T2, human MSLN-R3-his protein. The test is described as follows: ELISA on coated antigen, antibody 0.1 nM.
Protocol: as §1
B1 showed an OD450 of 0.05 OD450.

B2 showed an OD450 of 0.05 OD450.

For B3, the OD450 stood at 0.07 OD450.

B4 came in with an OD450 of 0.05 OD450.

B5 came in with an OD450 of 0.05 OD450.

The target of a further test is T1, human MSLN-R3-3 polypeptide. The experiment in a line: ELISA on coated antigen, antibody 1 nM.
Protocol: as §1
In turn, B1 returned an OD450 of 0.06 OD450.

With B2, the OD450 was 0.06 OD450.

As to B3, the OD450 was 0.05 OD450.

B4 came in with an OD450 of 0.05 OD450.

The molecule B5 gave an OD450 of 0.05 OD450.

For the next test, the target named is T3, human MSLN-R2-his protein. The test is described as follows: ELISA on coated antigen, antibody 1 nM.
Protocol: as §1
The molecule B1 yielded an OD450 of 2.04 OD450.

In the case of B2, the OD450 was 0.06 OD450.

As for B3, the OD450 is 0.05 OD450.

In turn, B4 gave an OD450 of 0.05 OD450.

Regarding B5, the OD450 was 0.05 OD450.

The next test deals with T2, human MSLN-R3-his protein. The experiment in a line: ELISA on coated antigen, antibody 10 nM.
Protocol: as §1
The molecule B1 displayed an OD450 of 0.05 OD450.

Take B2: the OD450 was determined as 0.07 OD450.

B3 showed an OD450 of 0.98 OD450.

In turn, B4 registered an OD450 of 0.05 OD450.

Take B5: the OD450 came to 0.05 OD450.

Another test has as its target T3, human MSLN-R2-his protein. The experiment in a line: ELISA on coated antigen, antibody 0.1 nM.
Protocol: as §1
B1 had an OD450 of 0.63 OD450.

In turn, B2 gave an OD450 of 0.06 OD450.

In the case of B3, the OD450 was found to be 0.05 OD450.

B4 gave an OD450 of 0.05 OD450.

B5 came in with an OD450 of 0.05 OD450.

A further test concerns the target T2, human MSLN-R3-his protein. The experiment in a line: ELISA on coated antigen, antibody 0.001 nM.
Protocol: as §1
In turn, B1 had an OD450 of 0.05 OD450.

Molecule B2 had an OD450 of 0.05 OD450.

B3 gave an OD450 of 0.05 OD450.

Consider B4, for which the OD450 came out at 0.05 OD450.

On to B5, for which the OD450 amounted to 0.05 OD450.

Another test has as its target T3, human MSLN-R2-his protein. The experiment in a line: ELISA on coated antigen, antibody 0.001 nM.
Protocol: as §1
The molecule B1 displayed an OD450 of 0.06 OD450.

On to B2, for which the OD450 amounted to 0.06 OD450.

As to B3, the OD450 worked out at 0.05 OD450.

B4 had an OD450 of 0.05 OD450.

Take B5: the OD450 is 0.05 OD450.

The target in a further test is T2, human MSLN-R3-his protein. The experiment in a line: ELISA on coated antigen, antibody 0.01 nM.
Protocol: as §1
In turn, B1 showed an OD450 of 0.05 OD450.

For the molecule B2, the OD450 is 0.05 OD450.

Regarding B3, the OD450 is 0.05 OD450.

As for B4, the OD450 came out at 0.04 OD450.

Consider B5, for which the OD450 came out at 0.05 OD450.
